The target in series [1] is T1, diol dehydratase PduCDE (Salmonella enterica, UniProt P37450 1-554; O31041 1-224; O31042 1-173).
T1 sequence (looked up) 1: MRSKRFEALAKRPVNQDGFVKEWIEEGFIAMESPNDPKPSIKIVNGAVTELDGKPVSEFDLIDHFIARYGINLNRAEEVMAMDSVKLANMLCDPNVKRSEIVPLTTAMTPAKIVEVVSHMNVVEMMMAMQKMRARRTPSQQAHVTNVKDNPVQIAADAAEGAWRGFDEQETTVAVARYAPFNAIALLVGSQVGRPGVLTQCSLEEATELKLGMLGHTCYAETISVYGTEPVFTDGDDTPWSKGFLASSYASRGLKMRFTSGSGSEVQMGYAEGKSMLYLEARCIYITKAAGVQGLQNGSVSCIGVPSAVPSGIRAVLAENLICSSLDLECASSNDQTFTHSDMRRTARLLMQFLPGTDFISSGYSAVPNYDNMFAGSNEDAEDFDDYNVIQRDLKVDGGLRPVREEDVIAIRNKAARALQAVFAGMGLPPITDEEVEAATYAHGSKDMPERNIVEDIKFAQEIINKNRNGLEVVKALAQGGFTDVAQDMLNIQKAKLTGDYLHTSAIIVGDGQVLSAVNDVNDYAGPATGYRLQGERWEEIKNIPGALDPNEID
T1 sequence (looked up) 2: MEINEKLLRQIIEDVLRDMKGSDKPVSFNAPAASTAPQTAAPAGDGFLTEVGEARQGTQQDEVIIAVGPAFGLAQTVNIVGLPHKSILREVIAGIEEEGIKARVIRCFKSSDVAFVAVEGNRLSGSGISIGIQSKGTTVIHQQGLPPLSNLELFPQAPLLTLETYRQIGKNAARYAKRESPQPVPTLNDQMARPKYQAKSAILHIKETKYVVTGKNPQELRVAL
T1 sequence (looked up) 3: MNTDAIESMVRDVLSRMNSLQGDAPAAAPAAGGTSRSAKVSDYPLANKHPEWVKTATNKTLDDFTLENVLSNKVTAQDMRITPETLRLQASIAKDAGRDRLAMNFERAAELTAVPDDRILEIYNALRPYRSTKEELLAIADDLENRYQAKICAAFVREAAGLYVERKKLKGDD
The series can be described thus: time-resolved fluorescence anisotropy. Background: In fluorescence polarisation assays a small probe gives low polarisation when free and higher when bound to something large.

Series [2] concerns the molecule itself. The series can be described thus: dynamic light scattering.
Series [3] addresses T1, diol dehydratase PduCDE. The series is described as follows: time-resolved fluorescence anisotropy. The source holds these as a separate data set.

Read-outs that look alike come from different tables or passages of the source.

B1: shell protein PduB’M38L (natural protein, Salmonella enterica, UniProt P37449 1-270, looked up)
chain: MSSNELVEQIMAQVIARVATPEQQAIPGQPQPIRETALAEKSCSLTEFVGTAIGDTLGLVIANVDTALLDAMKLEKRYRSIGILGARTGAGPHIMAADEAVKATNTEVVSIELPRDTKGGAGHGSLIILGGNDVSDVKRGIEVALKELDRTFGDVYGNEAGHIELQYTARASYALEKAFGAPIGRACGIIVGAPASVGVLMADTALKSANVEVVAYSSPAHGTSFSNEAILVISGDSGAVRQAVTSAREIGKTVLATLGSEPKNDRPSYI
Turning to B1, the binding result in series [1] is reported as “binds”.

B2: shell protein PduB (N-terminal truncated) (natural protein, Salmonella enterica, UniProt P37449 38-270, looked up)
chain: MAEKSCSLTEFVGTAIGDTLGLVIANVDTALLDAMKLEKRYRSIGILGARTGAGPHIMAADEAVKATNTEVVSIELPRDTKGGAGHGSLIILGGNDVSDVKRGIEVALKELDRTFGDVYGNEAGHIELQYTARASYALEKAFGAPIGRACGIIVGAPASVGVLMADTALKSANVEVVAYSSPAHGTSFSNEAILVISGDSGAVRQAVTSAREIGKTVLATLGSEPKNDRPSYI
As for B2, the binding result in series [2] and in series [3] was “binds” throughout.

The values are drawn from publication doi:10.1101/2020.02.18.954511 (bioRxiv, 2020).
